Data: publication PMC5959011

Legend:
[1] = biological target: smallest capsid protein (SCP) VP26 (herpes simplex virus type 1 (HSV-1), strain KOS) (UniProt P10219); assay: cryo-EM structure
[2] = biological target: tegument protein pUL25 (herpes simplex virus type 1 (HSV-1), strain KOS) (UniProt P10209); assay: cryo-EM structure

## smallest capsid protein (SCP) VP26 (from UniProt P10219 1-112) (natural protein)
[1]
  stoichiometry N: 6

## tegument protein pUL25 (from UniProt P10209 1-580) (natural protein)
[2]
  stoichiometry N: 2
